Reference: patent US20130171163A1 (published 2013)

B1: VEGFR3 (receptor, human, UniProt P35916 25-1363, looked up)
chain: YSMTPPTLNITEESHVIDTGDSLSISCRGQHPLEWAWPGAQEAPATGDKDSEDTGVVRDCEGTDARPYCKVLLLHEVHANDTGSYVCYYKYIKARIEGTTAASSYVFVRDFEQPFINKPDTLLVNRKDAMWVPCLVSIPGLNVTLRSQSSVLWPDGQEVVWDDRRGMLVSTPLLHDALYLQCETTWGDQDFLSNPFLVHITGNELYDIQLLPRKSLELLVGEKLVLNCTVWAEFNSGVTFDWDYPGKQAERGKWVPERRSQQTHTELSSILTIHNVSQHDLGSYVCKANNGIQRFRESTEVIVHENPFISVEWLKGPILEATAGDELVKLPVKLAAYPPPEFQWYKDGKALSGRHSPHALVLKEVTEASTGTYTLALWNSAAGLRRNISLELVVNVPPQIHEKEASSPSIYSRHSRQALTCTAYGVPLPLSIQWHWRPWTPCKMFAQRSLRRRQQQDLMPQCRDWRAVTTQDAVNPIESLDTWTEFVEGKNKTVSKLVIQNANVSAMYKCVVSNKVGQDERLIYFYVTTIPDGFTIESKPSEELLEGQPVLLSCQADSYKYEHLRWYRLNLSTLHDAHGNPLLLDCKNVHLFATPLAASLEEVAPGARHATLSLSIPRVAPEHEGHYVCEVQDRRSHDKHCHKKYLSVQALEAPRLTQNLTDLLVNVSDSLEMQCLVAGAHAPSIVWYKDERLLEEKSGVDLADSNQKLSIQRVREEDAGRYLCSVCNAKGCVNSSASVAVEGSEDKGSMEIVILVGTGVIAVFFWVLLLLIFCNMRRPAHADIKTGYLSIIMDPGEVPLEEQCEYLSYDASQWEFPRERLHLGRVLGYGAFGKVVEASAFGIHKGSSCDTVAVKMLKEGATASEHRALMSELKILIHIGNHLNVVNLLGACTKPQGPLMVIVEFCKYGNLSNFLRAKRDAFSPCAEKSPEQRGRFRAMVELARLDRRRPGSSDRVLFARFSKTEGGARRASPDQEAEDLWLSPLTMEDLVCYSFQVARGMEFLASRKCIHRDLAARNILLSESDVVKICDFGLARDIYKDPDYVRKGSARLPLKWMAPESIFDKVYTTQSDVWSFGVLLWEIFSLGASPYPGVQINEEFCQRLRDGTRMRAPELATPAIRRIMLNCWSGDPKARPAFSELVEILGDLLQGRGLQEEEEVCMAPRSSQSSEEGSFSQVSTMALHIAQADAEDSPPSLQRHSLAARYYNWVSFPGCLARGAETRGSSRMKTFEEFPMTPTTYKGSVDNQTDSGMVLASEEFEQIESRHRQESGFSCKGPGQNVAVTRAHPDSQGRRRRPERGARGGQVFYNSEYGELSEPSEEDHCSPSARVTFFTDNSY
notes: Endogenous protein in HUVEC lysates, with or without VEGF treatment (20 ng/ml, 10 min)

Experiments:
VEGFR2 = target: T1, VEGFR2 (human, UniProt P35968 20-1356); test: GST pulldown from HUVEC lysates, Western blot with anti-VEGFR2
T1 construct: Endogenous protein in HUVEC lysates, with or without VEGF treatment (20 ng/ml, 10 min)
T1 sequence (P35968 20-1356 limits assumed): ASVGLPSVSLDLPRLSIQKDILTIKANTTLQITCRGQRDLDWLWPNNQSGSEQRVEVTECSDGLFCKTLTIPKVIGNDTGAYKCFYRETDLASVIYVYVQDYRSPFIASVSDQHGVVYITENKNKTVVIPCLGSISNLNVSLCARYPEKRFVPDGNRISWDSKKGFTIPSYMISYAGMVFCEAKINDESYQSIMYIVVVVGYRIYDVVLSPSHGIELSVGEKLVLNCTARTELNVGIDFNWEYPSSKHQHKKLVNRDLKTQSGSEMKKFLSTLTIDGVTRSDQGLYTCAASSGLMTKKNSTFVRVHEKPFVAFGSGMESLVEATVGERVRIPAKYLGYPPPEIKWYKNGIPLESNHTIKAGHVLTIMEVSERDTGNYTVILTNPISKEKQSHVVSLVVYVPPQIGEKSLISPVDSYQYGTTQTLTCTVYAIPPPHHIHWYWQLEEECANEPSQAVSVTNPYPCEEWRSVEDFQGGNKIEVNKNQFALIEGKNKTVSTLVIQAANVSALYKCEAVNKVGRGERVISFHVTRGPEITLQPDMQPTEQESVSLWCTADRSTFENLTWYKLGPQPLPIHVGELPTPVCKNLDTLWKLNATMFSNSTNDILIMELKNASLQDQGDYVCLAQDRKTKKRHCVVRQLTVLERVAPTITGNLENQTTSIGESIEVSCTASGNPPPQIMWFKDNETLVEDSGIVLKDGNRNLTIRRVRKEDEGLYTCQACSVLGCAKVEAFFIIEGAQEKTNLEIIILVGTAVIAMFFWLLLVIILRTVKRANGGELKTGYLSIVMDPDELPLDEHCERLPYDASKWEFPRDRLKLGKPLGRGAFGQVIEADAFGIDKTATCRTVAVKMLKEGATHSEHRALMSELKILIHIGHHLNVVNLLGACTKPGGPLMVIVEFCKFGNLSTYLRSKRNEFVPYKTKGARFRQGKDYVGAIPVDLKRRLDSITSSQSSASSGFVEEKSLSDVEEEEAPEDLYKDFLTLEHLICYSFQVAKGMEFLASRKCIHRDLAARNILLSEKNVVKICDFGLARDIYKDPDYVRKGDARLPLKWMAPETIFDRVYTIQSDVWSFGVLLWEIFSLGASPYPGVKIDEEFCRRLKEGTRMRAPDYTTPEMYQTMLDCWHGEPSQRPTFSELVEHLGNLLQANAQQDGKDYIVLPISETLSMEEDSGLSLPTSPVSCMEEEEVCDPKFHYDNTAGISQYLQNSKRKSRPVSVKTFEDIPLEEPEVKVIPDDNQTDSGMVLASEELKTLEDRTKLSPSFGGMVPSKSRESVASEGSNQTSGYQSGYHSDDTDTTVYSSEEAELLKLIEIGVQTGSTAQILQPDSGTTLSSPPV
Description: (§1) C, Lysates from HUVECs stimulated with or without VEGF (20 ng/ml) for 10 min were immunoprecipitated with polyclonal antibodies against anti-cLAR or control goat IgG, followed by immunoblotting with anti-VEGFR2 (top), VEGFR3 (middle) or anti-cLAR antibody (bottom). D, Equal amounts of GST or GST-cLAR fusion protein were immobilized on glutathione-Sepharose beads and then incubated with HUVEC lysates containing equal amount of protein. GST or GST-cLAR-associated proteins were analyzed by Western blotting using anti-IGF-1Rβ antibody. The same membrane was reprobed with anti-GST antibody (E), anti-VEGFR2 (F, top) or anti-VEGFR3 (F, bottom) antibodies.

VEGFR3 = target: B1; test: GST pulldown from HUVEC lysates, Western blot with anti-VEGFR3
Description: as §1

[1] = target: T2, leukocyte antigen-related protein tyrosine phosphatase (LAR) (human, UniProt P10586 30-1907, limits assumed); test: co-immunoprecipitation from HUVEC lysates with anti-cLAR antibody, Western blot with anti-VEGFR3
T2 construct: Endogenous protein in HUVEC lysates; The background section describes LAR as a non-covalent complex of a 150-kDa E subunit and an 85-kDa P subunit, cleaved from a 200-kDa proprotein; In the functional assays, full-length human LAR was overexpressed from adenovirus (AdLAR) or knocked down with siRNA; also called LAR PTP; leukocyte antigen-related (LAR) PTP
Description: as §1

binding result (VEGFR2)	binding result (VEGFR3)	binding result [1]	Binder
no binding	no binding		GST-cLAR fusion protein (other, UniProt P10586 1285-1907, looked up, domain: cytoplasmic LAR (cLAR); The fusion was immobilized on glutathione-Sepharose beads and incubated with HUVEC lysates; not shown: Glutathione-S-transferase (GST) tag) KRKRTHSPSSKDEQSIGLKDSLLAHSSDPVEMRRLNYQTPGMRDHPPIPITDLADNIERLKANDGLKFSQEYESIDPGQQFTWENSNLEVNKPKNRYANVIAYDHSRVILTSIDGVPGSDYINANYIDGYRKQNAYIATQGPLPETMGDFWRMVWEQRTATVVMMTRLEEKSRVKCDQYWPARGTETCGLIQVTLLDTVELATYTVRTFALHKSGSSEKRELRQFQFMAWPDHGVPEYPTPILAFLRRVKACNPLDAGPMVVHCSAGVGRTGCFIVIDAMLERMKHEKTVDIYGHVTCMRSQRNYMVQTEDQYVFIHEALLEAATCGHTEVPARNLYAHIQKLGQVPPGESVTAMELEFKLLASSKAHTSRFISANLPCNKFKNRLVNIMPYELTRVCLQPIRGVEGSDYINASFLDGYRQQKAYIATQGPLAESTEDFWRMLWEHNSTIIVMLTKLREMGREKCHQYWPAERSARYQYFVVDPMAEYNMPQYILREFKVTDARDGQSRTIRQFQFTDWPEQGVPKTGEGFIDFIGQVHKTKEQFGQDGPITVHCSAGVGRTGVFITLSIVLERMRYEGVVDMFQTVKTLRTQRPAMVQTEDQYQLCYRAALEYLGSFDHYAT
		no binding	B1
